Measured values as given in patent US20250074994A1 (Molecular Partners, published 2025).
Positions count from the first letter of the chain named. Each block holds one binder with its values, some of them ahead of it.

Key:
[1] = target: T1, human CD70 expressed on Molm-13 tumor cells (human, UniProt P32970 1-193); experiment: cell-based or functional assay
T1 sequence (looked up): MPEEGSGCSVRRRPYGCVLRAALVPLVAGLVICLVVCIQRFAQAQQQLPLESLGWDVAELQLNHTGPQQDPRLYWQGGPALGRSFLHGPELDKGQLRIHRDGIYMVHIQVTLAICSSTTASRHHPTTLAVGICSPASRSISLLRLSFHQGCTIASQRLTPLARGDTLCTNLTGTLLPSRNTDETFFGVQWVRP

[2] = target: T2, biotinylated recombinant human CD70 (extracellular domain, Fc tag) (human, UniProt P32970 52-193, chemically biotinylated using 5-fold excess of Biotin); experiment: SPR (ProteOn XPR36), bio.CD70 immobilized on NLC chip, DARPin as analyte
T2 construct: Bought from ACROBiosystems; also called bio.hCD70; Bio.CD70; not shown: C-terminal Fc Tag of the bought protein (ACROBiosystems)
T2 sequence: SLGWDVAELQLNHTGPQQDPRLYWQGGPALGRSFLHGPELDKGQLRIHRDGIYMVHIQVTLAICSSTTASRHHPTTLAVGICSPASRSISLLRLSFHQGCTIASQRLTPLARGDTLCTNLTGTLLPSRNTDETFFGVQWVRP
Experimental: The binding affinities of purified ankyrin repeat proteins on recombinant human CD70 target were analyzed using a ProteOn XPR36 instrument (BioRad) and the measurement was performed according standard procedures known to the person skilled in the art.
Bio.CD70 was immobilized on a NLC chip and the ankyrin repeat proteins were applied as titration with a starting concentration of 100 nM and then titrated down to 1.2 nM. The signals were double referenced against the PBST-treated control lane of L1 and A6. Analyte injection was performed for 120 s followed by a dissociation for 1500 s.

[3] = target: T1, human CD70 expressed on Molm-13 tumor …; experiment: flow cytometry (MFI) on CD70-expressing Molm-13 N1 tumor cells
Experimental: Binding of binding proteins of the invention to CD70 expressed on the surface of cells was analyzed by fluorescence activated cell sorting (FACS) flow cytometry. For this purpose, CD70-expressing tumor cells (Molm-13 N1) were seeded at 100,000 cells per well in a 96 well plate. DARPin® protein #2, DARPin® protein #9, DARPin® protein #24 and DARPin® protein #25 were titrated down in 1:5 dilution ratio starting at 2000 nM. Tumor cells were resuspended with diluted DARPin proteins and incubated for 60 minutes at 4° C., The assay was performed in PBS including 2% fetal bovine serum without human serum albumin (HSA). After washing twice with Phosphate Buffer saline (PBS), DARPin® protein specific tumor cell binding was detected by adding unlabeled primary anti-rabbit DARPin® antibody (anti-rabbit 1-1-1 antibody, CePower) at 2 μg/ml. An incubation step of at least 30 minutes at 4° C. followed. Afterwards, cells were washed with PBS and a secondary goat anti-rabbit antibody labelled with Alexa Fluor 488 antibody (ThermoFisher) at 2 μg/ml was added. The same incubation conditions applied. Finally, the cells were washed twice and resuspended In Cytofix fixation buffer (BD Biosciences) for 15 min at room temperature (RT). Median fluorescence intensities (MFI) of Alexa Fluor 488 DARPin® protein labelled tumor cells were measured by Attune NXT (ThermoFisher) using FlowJo software for analyses and GraphPad Prism 8 for data plotting.

[4] = target: T2, biotinylated recombinant human CD70 …; experiment: SPR, bio.hCD70 on neutravidin-coated GLC chip, DARPin as analyte, 1:1 Langmuir fit
Experimental: Moreover, the binding affinities of two additional purified ankyrin repeat proteins on recombinant human CD70 target were measured and analyzed with a procedure as described above for DARPin proteins #2, #3, #5 to #12. Briefly, neutravidin was precoated on a GLC chip (BioRad) to a level of 5300 RU. In a second step, bio.hCD70 was immobilized to a level of 510 RU. The binding of DARPin protein #24 and DARPin protein #25 to bio.hCD70 was measured by Injecting the DARPin® molecule in a serial dilution of […]. For all described measurements, an association of 120 s and dissociation of 1200 s using a constant flow of 100 μl/min were applied. The CD70 target was regenerated with 4M MgCl₂ applied for 30s. The signals were double referenced against interspot and the running buffer (PBST: PBS pH 7.4 containing 0.005% […]) treated control lane A6. The 1:1 Langmuir model was used for the fitting.

[5] = target: T2, biotinylated recombinant human CD70 …; experiment: crude extract HTRF

B1: DARPin® protein #27 (designed binder)
chain: MRGSHHHHHHGSDLGKKLLQAARAGQLDEVRELLKAGADVNAKDQQGLTPLHIAANLGHLEIVEVLLKAGADVNAKDLFGLTPLHLAAFEGHLEIVEVLLKAGADVNAKDQHGATPLHLAAWVGHLEIVEVLLKAGADVNAQDKSGKTPADLAARAGHQDIAEVLQKAAGSPTPTPTTPTPTPTTPTPTPTGSDLGQKLLEAAWAGQDDEVRELLKAGADVNAKNSRGWTPLHTAAQTGHLEIFEVLLKAGADVNAKNDKRVTPLHLAAALGHLEIVEVLLKAGADVNARDSWGTTPADLAAKYGHQDIAEVLQKAA
EC50 of in vitro T-cell activation and tumor cell killing (Molm-13-N1 target cells), improvement over the parental binding protein [1]: ~31 fold

B3: DARPin® protein #6 (designed binder)
chain: MRGSHHHHHHGSDLGKKLLEAARAGQDDEVRILLAAGTDVNAKDARGSTPLHVAAIHGHLEIVEVLLKAGADVNAKDTWGWTPLHLAAYAGHLEIVEVLLKAGADVNAQDEEGQTPADLAAFHGHEDIAEVLQKAA
Kd [2]: 43 nM

B4: DARPin® protein #26 (designed binder)
chain: MRGSHHHHHHGSDLGIKLLTAAYDGQLDEVRILLKAGADVNAKDLRGQTPLHYAAGLGHLEIVEVLLKAGADVNAKDLHGWTPLHLAAWSGHLEIVEVLLKAGADVNAQDVEGVTPADLAAVQGHQDIAEVLQKAAGSPTPTPTTPTPTPTTPTPTPTGSDLGQKLLEAAWAGQDDEVRELLKAGADVNAKNSRGWTPLHTAAQTGHLEIFEVLLKAGADVNAKNDKRVTPLHLAAALGHLEIVEVLLKAGADVNARDSWGTTPADLAAKYGHQDIAEVLQKAA
EC50 of in vitro T-cell activation and tumor cell killing (Molm-13-N1 target cells), improvement over the parental binding protein [1]: ~7 fold

B6: DARPin® protein #9 (designed binder)
chain: MRGSHHHHHHGSDLGKKLLQAARAGQLDEVRELLKAGADVNAKDQAGLTPLHIAAATGHLEIVEVLLKAGADVNAKDFSGLTPLHLAAFEGHLEIVEVLLKAGADVNAKDQHGQTPLHLAAWTGHLEIVEVLLKAGADVNAQDKSGKTPADLAARAGHQDIAEVLQKAA
notes: Parent of DARPin protein #25
EC50 [3]: 475 nM | Kd [2]: 27 nM

B8: DARPin® protein #5 (designed binder)
chain: MRGSHHHHHHGSDLGFKLLQAALRGQLDEVRILLKAGADVNAKDQLGTTPLHLAAHYGHLEIVEVLLKAGADVNAKDVWGDTPLHLAAQHGHLEIVEVLLKAGADVNAQDRAGYTPADLAAQEGHEDIAEVLQKAA
Kd [2]: 5.8 nM

B10: DARPin® protein #2 (designed binder)
chain: MRGSHHHHHHGSDLGYKLLQAAYDGQLDEVRILLKAGADVNAKDSRGQTPLHYAASIGHLEIVEVLLKAGADVNAKDDHGWTPLHLAAWSGHLEIVEVLLKAGADVNAQDQEGTTPADLAAVQGHQDIAEVLQKAA
notes: Parent of DARPin protein #24
EC50 [3]: 4.9 nM | Kd [2]: 0.45 nM

B14: DARPin® protein #3 (designed binder)
chain: MRGSHHHHHHGSDLGQKLLHAAQVGQDDEVRILLAAGADVNAKDTRGITPLHDTAFYGHLEIVEVLLKAGADVNAKDVTGWTPLHLAAYTGHLEIVEVLLKAGADVNAQDNEGITPADLAAFHGHEDIAEVLQKAA
Kd [2]: 3.1 nM

Further lines, results first:

Kd [2]: 3 nM
B2: DARPin® protein #11 (designed binder)
chain: MRGSHHHHHHGSDLGIKLLYAAYFGQDDEVRILLAAGADVNAKDWLGKTPLHLAATEGHLEIVEVLLKAGADVNAKDEWGETPLHKAAQEGHLEIVEVLLKAGADVNAQDSAGYTPADLAAQVGHEDIAEVLQKAA

Kd [2]: 5.7 nM
B5: DARPin® protein #7 (designed binder)
chain: MRGSHHHHHHGSDLGAKLLNAATVGQDDEVRILLAAGADVNAKDWSGQTPLHHAAYTGHLEIVEVLLKAGADVNAKDSWGWTPLHLAAYTGHLEIVEVLLKAGADVNAQDKEGSTPADLAAFHGHEDIAEVLQKAA

EC50 [3]: 27 nM | Kd [4]: 13 nM
B7: DARPin® protein #25 (designed binder)
chain: B6 chain with A46Q, A56N, T57L, F78L, S79F, Q114A, T123V
notes: expressed as monovalent designed ankyrin repeat protein with N-terminal His-tag

Kd [2]: 16 nM
B9: DARPin® protein #10 (designed binder)
chain: MRGSHHHHHHGSDLGFKLLNAAVQGQDDEVRILLAAGADVNAKDLRGTTPLHLAAQFGHLEIVEVLLKAGADVNAKDVWGATPLHLAAEHGHLEIVEVLLKAGADVNAQDNAGKTPADLAAQDGHEDIAEVLQKAA

EC50 [3]: 5.2 nM | Kd [4]: 0.0081 nM
B11: DARPin® protein #24 (designed binder)
chain: B10 chain with Y16I, Q20T, S45L, S56G, I57L, D78L, Q111V, T114V
notes: as for B7

binding result [5]: binds
B12: DARPin® protein #1 (designed binder)
chain: B10 chain with L27D, K35A, G124S, Q126E

Kd [2]: 28 nM
B13: DARPin® protein #12 (designed binder)
chain: MRGSHHHHHHGSDLGKKLLQAARAGQLDEVRELLKAGADVNAKDQTGYTPLHLAARHGHLEIVEVLLKAGADVNAKDEYGWTPLHIAAFIGPLEIVEVLLKAGADVNAKDEQGATPLHLAAWQGHLEIVEVLLKAGADVNAQDKSGKTPADLAARAGHQDIAEVLQKAA

Kd [2]: 1.1 nM
B15: DARPin® protein #8 (designed binder)
chain: MRGSHHHHHHGSDLGHKLLFAAVRGQDDEVRILLAAGADVNAKDTRGVTPLHLAASWGHLEIVEVLLKAGADVNAKDELGNTPLHLAATDGHLEIVEVLLKAGADVNAQDWVGKTPADLAAWWGHEDIAEVLQKAA
